Bridges are numbered along the chain shown (N, C = ends). Where no end group is shown, it is not given here.
T1: Alexa-488 labeled PIVKAII Gla domain peptide (13-27) (disulfide 5-10; also: Alexa Fluor 488 label, site not given here)
T1 construct: also called Alexa488-PIVKAII peptide (13-27 cyc); Alexa488-PIVKA-II (13-27)
T1 peptide: LERECVEETCSYEEA

B1: monoclonal antibody 3C10 (antibody, V domains shown)
VH: EVQLVESGGDLVKPGGSLKLSCAASGFTFSSYGMSWVRQTPDKRLEWVATISRGGSSTYYPDSVKGRFTISRDNAKNNLYLQMSSLKSEDTAMYYCASLNYGNFFDYWGQGTTLTVSS
VL: DVVMTQTPLSLPVSLGDQASISCRSSQSLVHSNGNTYLHWYLQKPGQSPKLLIYKVSNRFSGVPDRFSGSGSGTDFTLKISRVEAEDLGVYFCSQNRHVPPTFGGGTKLEIKR
B2: Gla domain Protein C peptide (sequence 14) (peptide)
peptide: LERECIEEICDFEEA
notes: Synthetic 15-mer homologous to PIVKA-II 13-27, with plain Glu; also called PIVKAII Gla domain (13-27) analog
B3: Gla domain Protein S peptide (sequence 15) (peptide)
peptide: LERECIEELCNKEEA
notes: as for B2
B4: Gla domain Protein Z peptide (sequence 16) (peptide)
peptide: LEKECYEEICVYEEA
notes: as for B2
B5: Gla domain Factor VII peptide (sequence 13) (peptide)
peptide: LERECKEEQCSFEEA
notes: as for B2
B6: Gla domain Factor IX peptide (sequence 11) (peptide)
peptide: LERECMEEKCSFEEA
notes: as for B2
B7: Gla domain Factor X peptide (sequence 12) (peptide)
peptide: LERECMEETCSYEEA
notes: as for B2

Target: T1, Alexa-488 labeled PIVKAII Gla domain …
Assay: fluorescence quenching titration (FRET): 0.05 nM Alexa488 PIVKAII peptide (13-27), BHQ-labelled mAb 3C10 varied, quenching against free antibody binding sites, simple binding model

For B1, the Kd was 0.1 nM.

Target: B1
Assay: FCS competition: 2 nM Alexa488-PIVKAII (13-27) premixed with 10 nM mAb 3C10, analog peptide added, overnight; D of the tracer; negative control 47±4 (no displacement), positive control 174±10

In order of rising “Apparent Diffusion Coefficient (D)” value:
1. B6  48 um^2/sec
2. B5  49 um^2/sec
3. B3  50 um^2/sec
4. B4  51 um^2/sec
5. B7  52 um^2/sec
6. B2  53 um^2/sec

— patent US8283162 (AbbVie / Abbott, dated 2012)
